From PMC7376604 (Cell reports, 2020) come the findings set out here.

Assay [1] addresses human GLP-1 receptor (GLP-1R) (human) (UniProt P43220).
In assay [2] the test system is shrews (Suncus murinus). Put plainly: Food intake and body weight. The assay is classed as in vivo. As to conditions: shrew, albiglutide 0.5 and 5 mg/kg i.p.

Chain of UniProt P43220 (P43220 24-463): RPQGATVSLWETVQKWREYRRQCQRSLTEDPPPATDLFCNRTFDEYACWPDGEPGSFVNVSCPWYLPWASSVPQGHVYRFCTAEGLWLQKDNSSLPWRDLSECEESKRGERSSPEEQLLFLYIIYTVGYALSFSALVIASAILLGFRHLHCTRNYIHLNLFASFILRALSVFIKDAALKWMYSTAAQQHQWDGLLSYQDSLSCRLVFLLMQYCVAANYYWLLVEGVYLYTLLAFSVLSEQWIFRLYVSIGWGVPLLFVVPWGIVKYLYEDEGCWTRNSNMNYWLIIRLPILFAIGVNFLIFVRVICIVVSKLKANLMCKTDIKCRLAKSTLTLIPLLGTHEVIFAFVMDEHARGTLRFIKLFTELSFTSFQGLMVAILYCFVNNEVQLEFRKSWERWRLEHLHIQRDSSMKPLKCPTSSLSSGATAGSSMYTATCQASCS

For HC-Cbi-Ex4 (complex), in assay [1], the EC50 of agonism at the GLP-1R turned out to be 3 nM.
For albiglutide, the “anorexia and body-weight loss” value in assay [2] was “did not cause anorexia and body-weight loss”.
